# Experimental data reported in US20250236669A1 (BIRD ROCK BIO, published 2025).
# Where a chain is given by its changes, count along the chain named.
# B1: PA2LR3-P6G7 (chimeric) (antibody, human IgG1, kappa, V domains shown)
# VH: EVQLQQSGAELVRPGSSVKISCKASGFAFSNYWMNWVKQRPGQGLEWIGQIYPGDGDTNFNGKFKGRAILTADISSNTAYMQLSSLTSEDSAVYFCARSHGNYFPYWGQGTLVTVSA
# VL: DIVLTQSPAIMSASLGERVTMTCTASSSVSSSYLHWYQQKPGSSPKLWIYSTSNLASGVPARFSGSGSGTSYSLTISSMEAEDAATYYCHQHHRSPPTFGAGTKLELKR
# B2: PA2LR3-P4B1 (chimeric) (antibody, human IgG1, kappa, V domains shown)
# VH: B1 VH
# VL: B1 VL with D1Q, H92Y, P97L
# B3: PA2LR3-P6B12 (chimeric) (antibody, human IgG1, kappa, V domains shown)
# VH: B1 VH with F27Y, N31Y, F60Y, R67K, I69T, I74K, N77S, P105A
# VL: B1 VL with D1Q, H92Y, P97L, T98A
# B4: PA2LR3-P2D3 (chimeric) (antibody, human IgG1, kappa, V domains shown)
# VH: B1 VH with F27Y, N31Y, F60Y, R67K, I69T, I74K, N77S, N102S, P105A
# VL: DIELAQSPASLAVSLGQRATISCRASESVDSYGNSFMHWYQQKPGQPPKLLIYLASNLESGVPARFSGSGSRADFTLTIDPVEADDAATYYCLQYASSPPTFGAGTKLEIKR
# B5: P1C4-h2-IgG1 (antibody)
# heavy: not shown
# light: EIVLTQSPATLSLSPGERATLSCRASQSVSSSYLHWYQQKPGQAPRLLIYSTSNLASGIPARFSGSGSGTDFTLTISRLEPEDFAVYYCHQYHRSPPTFGQGTKVEIKRTVAAPSVFIFPPSDEQLKSGTASVVCLLNNFYPREAKVQWKVDNALQSGNSQESVTEQDSKDSTYSLSSTLTLSKADYEKHKVYACEVTHQGLSSPVTKSFNRGEC
# B6: P1C4-h4-IgG1 (antibody)
# heavy: not shown
# light: B5 light
# notes: also called P1C4-H4 (YENG); P1C4-H4 (YENG)-IgG
# B7: P1C4-H4-IgG4 (antibody)
# heavy: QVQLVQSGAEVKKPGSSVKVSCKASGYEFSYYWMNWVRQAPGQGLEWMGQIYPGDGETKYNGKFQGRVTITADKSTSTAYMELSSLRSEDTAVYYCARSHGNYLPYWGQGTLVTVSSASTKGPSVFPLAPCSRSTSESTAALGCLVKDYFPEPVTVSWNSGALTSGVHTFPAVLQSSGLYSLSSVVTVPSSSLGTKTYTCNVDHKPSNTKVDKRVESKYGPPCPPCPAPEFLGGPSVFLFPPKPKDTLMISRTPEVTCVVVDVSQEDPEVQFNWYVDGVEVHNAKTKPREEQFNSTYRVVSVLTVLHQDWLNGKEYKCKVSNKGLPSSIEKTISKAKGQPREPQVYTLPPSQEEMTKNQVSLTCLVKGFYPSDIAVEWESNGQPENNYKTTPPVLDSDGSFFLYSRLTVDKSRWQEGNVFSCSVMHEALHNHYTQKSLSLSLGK
# light: B5 light
# B8: P1C4-h0-IgG1 (antibody, V domains shown)
# VH: QVQLVQSGAEVKKPGSSVKVSCKASGGTFSYYWMNWVRQAPGQGLEWMGQIYPGDGETKYAQKFQGRVTITADKSTSTAYMELSSLRSEDTAVYYCARSHGNYLPYWGQGTLVTVSS
# VL: EIVLTQSPATLSLSPGERATLSCRASQSVSSSYLHWYQQKPGQAPRLLIYSTSNLASGIPARFSGSGSGTDFTLTISRLEPEDFAVYYCHQYHRSPPTFGQGTKVEIKR
# B9: 36E12B6C2 IgG (antibody, V domains shown)
# VH: QVQLQQSGAELVRPGSSVKISCKASGYEFSYYWMNWVKQRPGQGLQWIGQIYPGDGDTNYNGKFKGKATLTADKSSSTAYMHLTSLTSEDSAVYFCARSGGNPFAFWGQGTLVTVSA
# VL: DIQMTQTSSSLSASLGDRVTFSCRASQDISNYLNWYQQKPDGTVKLLIYYTSRLHSGVTSRFRGSGSGTDYSLTISNLEQEDVATYFCQQGHTLPWSFGGGTKLEIKR
# notes: Hybridoma-derived
# B10: P1C4-h2 Fab (Fab, V domains shown)
# VH: B8 VH with G27Y, T28E
# VL: EIVLTQSPATLSLSPGERATLSCRASQSVSSSYLHWYQQKPGQAPRLLIYSTSNLASGIPARFSGSGSGTDFTLTISRLEPEDFAVYYCHQYHRSPPTFGQGTKVEIK
# B11: P1C4-h4 Fab (Fab, V domains shown)
# VH: B8 VH with G27Y, T28E, A61N, Q62G
# VL: B10 VL
# Tests used:
# [1] = molecular target: T1, native full length human CB1 receptor (TRex-CHO A156 cells) (human, UniProt P21554 1-472); test: cell-based or functional assay
# T1 sequence (P21554 whole entry): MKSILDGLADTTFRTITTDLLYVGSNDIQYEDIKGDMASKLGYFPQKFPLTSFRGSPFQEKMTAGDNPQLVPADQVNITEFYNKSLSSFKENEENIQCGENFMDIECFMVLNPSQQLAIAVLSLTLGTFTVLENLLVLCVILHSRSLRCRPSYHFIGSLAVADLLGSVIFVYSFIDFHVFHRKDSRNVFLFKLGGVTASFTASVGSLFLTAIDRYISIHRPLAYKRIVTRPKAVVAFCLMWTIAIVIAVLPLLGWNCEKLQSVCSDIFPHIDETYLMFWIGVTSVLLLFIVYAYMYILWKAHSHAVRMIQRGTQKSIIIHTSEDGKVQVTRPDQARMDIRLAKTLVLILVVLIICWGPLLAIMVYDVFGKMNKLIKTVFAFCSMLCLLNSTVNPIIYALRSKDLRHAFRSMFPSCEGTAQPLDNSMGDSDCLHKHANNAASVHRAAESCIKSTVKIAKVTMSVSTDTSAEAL
# [2] = molecular target: T2, human CB2 (on TRex-CHO cells) (human, UniProt P34972 1-360); test: flow cytometry, mean fluorescence intensity against antibody concentration, TRex-CHO human CB2 cells
# T2 construct: whole, on cells; also called TRexCHO Human CB2; CB2 expression cell line
# T2 sequence (P34972 whole entry): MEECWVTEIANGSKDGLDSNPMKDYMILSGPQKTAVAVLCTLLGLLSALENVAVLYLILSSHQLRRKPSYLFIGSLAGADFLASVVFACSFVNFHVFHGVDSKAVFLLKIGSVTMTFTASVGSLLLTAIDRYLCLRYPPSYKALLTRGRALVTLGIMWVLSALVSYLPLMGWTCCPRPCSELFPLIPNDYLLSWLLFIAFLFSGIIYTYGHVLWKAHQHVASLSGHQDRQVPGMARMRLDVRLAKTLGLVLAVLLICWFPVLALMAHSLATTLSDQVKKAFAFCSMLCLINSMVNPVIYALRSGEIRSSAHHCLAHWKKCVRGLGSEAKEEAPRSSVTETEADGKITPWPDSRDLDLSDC
# [3] = molecular target: T3, mouse CB1 (on TRex-CHO cells) (mouse, UniProt P47746 1-473); test: flow cytometry, mean fluorescence intensity against antibody concentration, TRex-CHO mouse CB1 cells
# T3 construct: whole, on cells; also called TRexCHO Mouse CB1
# T3 sequence (P47746 whole entry): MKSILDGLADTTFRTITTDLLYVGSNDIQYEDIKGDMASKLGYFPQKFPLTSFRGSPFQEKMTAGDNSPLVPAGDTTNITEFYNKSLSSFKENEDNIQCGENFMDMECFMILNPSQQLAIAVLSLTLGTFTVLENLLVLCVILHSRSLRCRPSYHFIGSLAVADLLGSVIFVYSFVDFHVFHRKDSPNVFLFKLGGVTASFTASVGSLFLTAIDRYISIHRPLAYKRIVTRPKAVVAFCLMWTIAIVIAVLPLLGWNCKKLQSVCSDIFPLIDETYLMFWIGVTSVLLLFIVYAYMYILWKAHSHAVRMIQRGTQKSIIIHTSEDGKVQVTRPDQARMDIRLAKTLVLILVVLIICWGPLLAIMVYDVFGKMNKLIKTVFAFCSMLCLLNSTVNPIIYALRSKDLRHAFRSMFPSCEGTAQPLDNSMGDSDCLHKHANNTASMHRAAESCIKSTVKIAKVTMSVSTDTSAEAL
# [4] = molecular target: T1, native full length human CB1 receptor …; test: cell-based or functional assay; remark: listed apart in the source
# [5] = molecular target: T1, native full length human CB1 receptor …; test: cell-based or functional assay; remark: listed apart in the source
# [6] = molecular target: T1, native full length human CB1 receptor …; test: cell-based or functional assay; remark: listed apart in the source
# [7] = molecular target: T1, native full length human CB1 receptor …; test: cell-based or functional assay; remark: listed apart in the source
# [8] = molecular target: T1, native full length human CB1 receptor …; test: cell-based or functional assay; remark: listed apart in the source
# [9] = molecular target: T3, mouse CB1 (on TRex-CHO cells); test: flow cytometry on cells expressing mouse CB1
# [10] = molecular target: T1, native full length human CB1 receptor …; test: cell-based or functional assay; remark: listed apart in the source
# [11] = molecular target: T1, native full length human CB1 receptor …; test: cell-based or functional assay; remark: listed apart in the source
binder,measurement,setting,value
B1,"EC50, cAMP agonist functional assay, CB1 TRex CHO cells",[1],> 300 nM
B2,"EC50, cAMP agonist functional assay, CB1 TRex CHO cells",[1],> 300 nM
B3,"EC50, cAMP assay in the presence of CP55940, CB1 TRex CHO cells",[1],~1000 nM
B4,"EC50, cAMP agonist functional assay, CB1 TRex CHO cells",[1],> 300 nM
B5,binding result,[2],no binding (tested: about 300 nM)
same,binding result,[3],no binding (tested: about 300 nM)
B6,binding result,[2],no binding (tested: about 300 nM)
same,binding result,[3],no binding (tested: about 300 nM)
B7,"IC50, cAMP activity; after dialysis to pH 3 and 48 h at 40 C",[4],139 nM
same,"IC50, cAMP activity; after dialysis to pH 9 and 48 h at 40 C",[4],64 nM
same,"cAMP IC50, antagonist assay; CHO-S batch [n]",[5],51 nM
same,"cAMP IC50, antagonist assay; Mean of Batch 1 [n]",[5],54 nM
same,"cAMP IC50, antagonist assay; Mean of Batch 2 [n]",[5],54 nM
same,"IC50, cAMP antagonist assay; after 5 freeze/thaw cycles",[6],32 nM
same,"IC50, potency (cAMP); at 4 C for 33 days",[7],62 nM
same,"IC50, potency (cAMP); at 40 C for 33 days",[7],71 nM
B8,"cAMP IC50, antagonist assay; Mean of Batch 1 [n]",[5],158 nM
same,"cAMP IC50, antagonist assay; Mean of Batch 2 [n]",[5],343 nM
same,"IC50, cAMP functional assay, native human CB1 TRex-CHO cells",[8],146 nM
same,binding result,[2],no binding (tested: about 300 nM)
same,binding result,[3],no binding (tested: about 300 nM)
B9,binding result,[9],no binding
B10,IC50 (read off the curve),[10],~30 nM
same,"IC50 cAMP assay (Fab), CB1 TRex CHO cells",[11],52 nM
B11,IC50 (read off the curve),[10],~40 nM
same,"IC50 cAMP assay (Fab), CB1 TRex CHO cells",[11],43 nM
